Legend:
[1] = cited from earlier work; for site of clearance: sialic acid-containing or after sialic acid elimination
plasminogen in blood = conditions: in vivo; cited from earlier work
thrombin = conditions: cited from earlier work
fibrin = conditions: cited from earlier work
[2] = no carbohydrate chain; cited from earlier work
[3] = no carbohydrate chain; cited from earlier work; remark: listed apart in the source
plasmin = conditions: cited from earlier work
chymotrypsin = test: proteolysis susceptibility of hG-CSF and hG-CSF[ND28] produced in Escherichia coli; assay type: in vitro ADME
Text: Analysis of hG-CSF and the hG-CSF derivative hG-CSF[ND 28] […] On the basis of the above findings, it is estimated that, in hG-CSF[ND28], a portion close to the N terminus and a portion in the vicinity of the 144th (from the N terminus) amino acid are found on the polypeptide surface. Therefore, an attempt was made to add a carbohydrate chain to hG-CSF[ND28] on the 6th or 145th (from the N terminus) amino acid residue thereof. An hG-CSF[ND28] derivative which has a carbohydrate chain addition site on the 6th (from the N terminus) amino acid residue is hG-CSF[ND28N6] and a derivative which has a carbohydrate chain addition site on the 145th (from the N terminus) amino acid residue is hG-CSF[ND28N145]. In these cases, it is expected that the carbohydrate chain addition can result in development of protease resistance. Retardation of blood clearance can also be expected as a result of stabilization of the polypeptide.

[4] = rat plasma and rat perfusate; cited from earlier work

## hGM-CSF after sialic acid elimination: hGM-CSF after sialic acid elimination
[1]; after sialic acid elimination
  rate of clearance: increased rate of clearance
[1]
  site of clearance: undergoes clearance in the liver

## Urokinase
Plasminogen in blood
  systemic hyperfibrinolysis / bleeding tendency: causing systemic hyperfibrinolysis and leading to a bleeding tendency
thrombin
  conversion under the action of thrombin: converted to an inactive form upon exposure to a protease called thrombin
fibrin
  affinity for fibrin: no affinity for fibrin

## hGM-CSF: human granulocyte macrophage colony stimulating factor (hGM-CSF)
[1]; dependence on number of carbohydrate chains
  rate of clearance from the rat plasma: the rate of clearance from the rat plasma increases in proportion to the reduction in the number of carbohydrate chains

## streptokinase: thrombolytic agent
Plasminogen in blood
  systemic hyperfibrinolysis / bleeding tendency: causing systemic hyperfibrinolysis and leading to a bleeding tendency
fibrin
  affinity for fibrin: no affinity for fibrin

## human erythropoietin: human erythropoietin produced in Escherichia coli or enzymatically treated for carbohydrate chain elimination
[2]
  activity in vitro: shows activity in vitro
[3]
  activity in vivo: shows decreased activity in vivo
  clearance: undergoes rapid clearance

## sialic acid-containing hGM-CSF: sialic acid-containing hGM-CSF
[1]
  site of clearance: undergoes clearance in the kidney

## t-PA: tissue plasminogen activator (t-PA)
fibrin
  affinity for fibrin: have affinity for fibrin
plasmin
  conversion under the action of plasmin: Plasmin converts the single-chainform to the double-chain form

B1: hG-CSF: human granulocyte colony stimulating factor (hG-CSF) (protein, UniProt P09919 31-207, looked up)
Granulocyte …: TPLGPASSLPQSFLLKCLEQVRKIQGDGAALQEKLVSECATYKLCHPEELVLLGHSLGIPWAPLSSCPSQALQLAGCLSQLHSGLFLYQGLLQALEGISPELGPTLDTLQLDVADFATTIWQQMEELGMAPALQPTQGAMPAFASAFQRRAGGVLVASHLQSFLEVSYRVLRHLAQP
chymotrypsin
  susceptibility to proteolysis by chymotrypsin behind 144th amino acid Phe: susceptible to proteolysis by chymotrypsin

B2: α1 -acid glycoproteins: α1 -acid glycoproteins differing in carbohydrate structure as biosynthesized in a rat liver primary culture system (protein, UniProt P02764 19-205, looked up)
Alpha-1-acid glycoprotein: QNPEPANITLGIPITNETLKWLSDKWFYMGAAFRDPVFKQAVQTIQTEYFYLTPNLINDTIELREFQTTDDQCVYNFTHLGVQRENGTLSKCAGAVKIFAHLIVLKKHGTFMLAFNLTDENRGLSFYAKKPDLSPELRKIFQQAVKDVGMDESEIVFVDWTKDKCSEQQKQQLELEKETKKETKKDP
modifications: glycoform mixture
notes: α1 -acid glycoproteins differing in carbohydrate structure as biosynthesized in a rat liver primary culture system
[4]
  order of clearance rates: high mannose type>carbohydrate chain-deficient type>hybrid type>complex type (natural form)

Source: patent US5218092A, “Modified granulocyte-colony stimulating factor polypeptide with added carbohydrate chains” (Kyowa Hakko Kogyo Co., Ltd., priority 1988, dated 1993)
